From the RNAGym collection of RNA variant scans (doi:10.1021/acssynbio.7b00057)

B1: Pistol ribozyme (parent)
chain: GGGUCGUUGUUCCAUAAUCGCGUGGAUAUGGCACGCAAGUUUCUACCGGGCACCGUAAAUGUCCGACUGGAGCCGUUCGGGCGGCUAUAAACAGACCUCAGGCCCGAAGCGUGGCGGCACCUGCCGCCGGUGGUAAAAAAGAUCGGAAGAGCACACGUCU

Variants of: B1
Assay: aptazyme ON/OFF ratio, guanine; higher = stronger switching; co-transcriptional cleavage with and without guanine

In order of falling “aptazyme ON/OFF ratio” value:
1. U7C U8C G9U U10C C13U  3.5
2. U7C U8C G9C U10C C13U  2.85
3. U7C U8C G9U U10C U11A  2.44
4. U7C U8C G9U U10A U11A  2.27
5. U7C U8C G9U C12U  1.61
6. U7C U8C G9U U10G C13U  1.39
7. U7C U8C G9U U10A U11C C12G  1.36
8. U7C U8C G9U C12A  1.36
9. U7C U8C G9U U10A U11G  1.34
10. U7C U8C G9U U10C U11A C12G  1.34
11. U7C U8C G9C U10C U11G C13A  1.33
12. U7C U8C G9U U10G C12U  1.33
13. U7C U8C G9U U10C U11G  1.32
14. U7C U8C G9U U10G U11A  1.32
15. U7C U8C G9C U11C C12U  1.32
16. U7C U8C G9U C12U C13U  1.3
17. U7C U8C G9U U10C U11C  1.3
18. U7C U8C G9U C12G  1.29
19. U7C U8C G9U U10A U11A C12U  1.28
20. U7C U8C G9U U10A U11A C12A  1.27
21. U7C U8C G9U U10A C13U  1.27
22. U7C U8C G9U U10C U11A C12A  1.26
23. U7C U8C G9U U10C U11A C12U  1.26
24. U7C U8C G9C U11C C12G  1.24
25. U7C U8C G9U U10C U11C C12U  1.23
26. U7C U8C G9C U11A C12A  1.23
27. U7C U8C G9U U10C U11A C13U  1.23
28. U7C U8C G9U U10G C12A  1.22
29. U7C U8C G9U U10C U11C C12A  1.22
30. U7C U8C G9C U11C C12A  1.22
31. U7C U8C G9C U10C U11G C13U  1.21
32. U7C U8C G9U U10C U11G C12U C13U  1.21
33. U7C U8C G9U U10G C13A  1.21
34. U7C U8C G9U U10G C12U C13U  1.21
35. U7C U8C G9U U10A U11A C12G  1.2
36. U7C U8C G9U U10A C12A C13U  1.2
37. U7C U8C G9U U10A C12A C13A  1.2
38. U7C U8C G9C U11C C12G C13G  1.2
39. U7C U8C G9U U10C C13A  1.2
40. U7C U8C G9U U10C U11A C13A  1.2
41. U7C U8C G9C U10G C12U  1.2
42. U7C U8C G9C U10C U11G C13G  1.19
43. U7C U8C G9U U10A U11G C12A C13A  1.19
44. U7C U8C G9U U10A U11C C12A  1.19
45. U7C U8C G9U U10A U11C C12U  1.19
46. U7C U8C G9U U10C U11G C12U C13G  1.19
47. U7C U8C G9U U10A U11G C12G C13A  1.19
48. U7C U8C G9U U10A U11C C12G C13G  1.19
49. U7C U8C G9C U10C U11G C12A  1.18
50. U7C U8C G9U U10C U11C C12A C13G  1.18
51. U7C U8C G9U U10C U11C C12G C13G  1.18
52. U7C U8C G9C U11C C12A C13U  1.18
53. U7C U8C G9U U10A U11C C12A C13U  1.18
54. U7C U8C G9C U10G C13U  1.17
55. U7C U8C G9U U10C U11A C12A C13G  1.17
56. U7C U8C G9U U10C U11A C12A C13A  1.17
57. U7C U8C G9U U10A U11C C12A C13A  1.17
58. U7C U8C G9C U10G U11C C12U C13U  1.17
59. U7C U8C G9U U10A U11C C12G C13A  1.17
60. U7C U8C G9C U11A C12U C13G  1.16
61. U7C U8C G9U U10A C12G C13A  1.16
62. U7C U8C G9U U10A U11C C12U C13A  1.16
63. U7C U8C G9U U10C U11C C12A C13U  1.16
64. U7C U8C G9C U11C C12A C13A  1.16
65. U7C U8C G9U U10A U11C  1.16
66. U7C U8C G9U U10A U11C C12U C13U  1.15
67. U7C U8C G9C U10C U11G C12U  1.15
68. U7C U8C G9U U10G C12G  1.15
69. U7C U8C G9U U10A U11C C12A C13G  1.15
70. U7C U8C G9U U10A U11C C12G C13U  1.15
71. U7C U8C G9U U10A U11C C12U C13G  1.14
72. U7C U8C G9C U10G U11C C12G C13A  1.14
73. U7C U8C G9U U10A U11G C12U C13U  1.14
74. U7C U8C G9U U10A C13A  1.14
75. U7C U8C G9U U10C U11G C12G C13A  1.14
76. U7C U8C G9C U11A C12G  1.14
77. U7C U8C G9C U11A C12U  1.14
78. U7C U8C G9C U10G U11C C12U C13G  1.14
79. U7C U8C G9U U10C U11A C13G  1.14
80. U7C U8C G9C U11A C12A C13G  1.14
81. U7C U8C G9U U10A U11A C13G  1.14
82. U7C U8C G9C U10C U11G C12G  1.13
83. U7C U8C G9U U10A U11G C12U C13G  1.13
84. U7C U8C G9U U10C C12G C13U  1.13
85. U7C U8C G9C U10G C13A  1.13
86. U7C U8C G9C U11A C13A  1.13
87. U7C U8C G9C U11G C12A C13A  1.13
88. U7C U8C G9C U10C U11A C12G C13G  1.13
89. U7C U8C G9C U11A C12A C13U  1.13
90. U7C U8C G9U U10A U11G C12A C13U  1.12
91. U7C U8C G9U U10A C12G C13G  1.12
92. U7C U8C G9U U10C U11C C12A C13A  1.12
93. U7C U8C G9U U10A U11A C12A C13A  1.12
94. U7C U8C G9U U10G C13G  1.12
95. U7C U8C G9C U10C U11G C12G C13G  1.12
96. U7C U8C G9U U10G C12U C13G  1.12
97. U7C U8C G9C U10C C13G  1.12
98. U7C U8C G9U U10C U11G C12A C13U  1.12
99. U7C U8C G9C U11A C12U C13U  1.11
100. U7C U8C G9C U10G U11C C12G C13U  1.11
101. U7C U8C G9U U10C C12G C13A  1.11
102. U7C U8C G9U U10C C12G C13G  1.11
103. U7C U8C G9U U10A U11A C12A C13G  1.11
104. U7C U8C G9C U11C C12U C13U  1.11
105. U7C U8C G9C U10C U11A C12G C13A  1.11
106. U7C U8C G9C U10C U11A C12U C13G  1.11
107. U7C U8C G9C U10G U11G C12G C13A  1.11
108. U7C U8C G9C U10G U11A C12G C13G  1.11
109. U7C U8C G9C U10C U11G C12G C13U  1.11
110. U7C U8C G9U U10C U11G C12A C13G  1.11
111. U7C U8C G9U U10C U11G C12A C13A  1.11
112. U7C U8C G9C U10G U11C C12G C13G  1.1
113. U7C U8C G9U U10C U11C C13G  1.1
114. U7C U8C G9U U10A U11A C12A C13U  1.1
115. U7C U8C G9C U10G C13G  1.1
116. U7C U8C G9C U11G C12A C13G  1.1
117. U7C U8C G9C U10C U11A C12U C13U  1.1
118. U7C U8C G9U U10G C12U C13A  1.1
119. U7C U8C G9C U11A C12A C13A  1.1
120. U7C U8C G9C U10G C12A  1.1
121. U7C U8C G9C U10G C12G  1.1
122. U7C U8C G9U U10C U11C C12U C13G  1.1
123. U7C U8C G9U U10C U11G C12U C13A  1.09
124. U7C U8C G9C U10G U11A C12U C13U  1.09
125. U7C U8C G9U U10A C13G  1.09
126. U7C U8C G9C U11C C12G C13A  1.09
127. U7C U8C G9U U10C U11G C12G C13G  1.09
128. U7C U8C G9C U11A C13G  1.09
129. U7C U8C G9C U11G C12A C13U  1.09
130. U7C U8C G9U U10C U11A C12A C13U  1.09
131. U7C U8C G9C U10G U11G C12G C13G  1.09
132. U7C U8C G9U U10A C12G C13U  1.08
133. U7C U8C G9U U10C U11G C12G C13U  1.08
134. U7C U8C G9U U10A U11G C12G C13G  1.08
135. U7C U8C G9C U11A C13U  1.08
136. U7C U8C G9U U10C C13G  1.08
137. U7C U8C G9C U11C C12U C13G  1.08
138. U7C U8C G9C U10C U11A C12U C13A  1.08
139. U7C U8C G9C U10G U11A C12G C13U  1.08
140. U7C U8C G9C U10C U11G C12G C13A  1.08
141. U7C U8C G9U U10C U11C C12U C13U  1.08
142. U7C U8C G9U U10C U11C C12U C13A  1.08
143. U7C U8C G9C U10G U11A C12U C13G  1.07
144. U7C U8C G9C U10G U11A C12U C13A  1.07
145. U7C U8C G9U U10A C12A C13G  1.07
146. U7C U8C G9U U10A U11G C12G C13U  1.07
147. U7C U8C G9C U11A C12G C13A  1.07
148. U7C U8C G9C U11A C12G C13G  1.07
149. U7C U8C G9C U10G U11C C12U C13A  1.07
150. U7C U8C G9C U11A C12U C13A  1.06
151. U7C U8C G9U C12U C13A  1.06
152. U7C U8C G9U U10A U11G C12U C13A  1.06
153. U7C U8C G9U U10C U11C C12G  1.06
154. U7C U8C G9U U10A U11G C12A C13G  1.05
155. U7C U8C G9U U10C U11C C12G C13U  1.05
156. U7C U8C G9U U10C U11C C12G C13A  1.05
157. U7C U8C G9C U11C C12U C13A  1.05
158. U7C U8C G9C U10C U11A C12G C13U  1.05
159. U7C U8C G9C U10G U11G C12G C13U  1.05
160. U7C U8C G9C U10G U11A C12G C13A  1.05
161. U7C U8C G9U U10C U11C C13U  1.04
162. U7C U8C G9C U11C C12A C13G  1.04
163. U7C U8C G9C U10C C13A  1.04
164. U7C U8C G9C U11A C12G C13U  1.03
165. U7C U8C G9U C12U C13G  1.02
166. U7C U8C G9U U10C U11C C13A  1.02
167. U7C U8C G9C U11C C12G C13U  1.01
